Assay results published in the DeepSol protein solubility set.

experiment: soluble on expression in E. coli; label from the status in PepcDB or PDB records

Sequence	soluble on expression in E. coli
MGSDKIHHHHHHMEFIEFGYGTSTDENSLKAGAHAASDALKMMKKYSEKPNIVFLYSSPDYDPEEVLNGVKLILGNSVQIVGGSSKFQICGNKFLENGVSVGILGSKYFNTGMGVGLGISINPKESGKKAVKDAVENLGMLPKLLYVITDFCKCEEQVLKGIIEELGVTIPIFGGVSSDDFEFEHTYQYGNDVYLDSIVCVAFGGDIVPKISYNNYEYGENSGKLENIITKSEKRSIEEIGNISAVKRYIEISGYKGTVNELEKDPEFYLSHPLGILDTTGDIHLKGPISIKNKKLITGSNISNSNELKIENIDKNAIKNIFETNTSVLNNTQPHYEPALTFCNISSFLSEINPDEIEKLIEKSDINPFFGSSTFGEISLKKYGNYSMSMCSFAPDLVTISAKEGIHMFTKHPATKETLIKIHELGGSVKVEELAKSLGIHRRSAYDRIDPLLKYGFIEKDQAVIKITEFGKLLLKFEF	not soluble
MGSDKIHHHHHHMEKSEEKEIICRMFNSPLPHPSQNHLLAALPAMELGDLIPHLELIHMRAGDILCEAGDQLPYAYFPASAIISLHYILENGASSEIANVGREGMLGVSLFMGGETSSNWATVQIPGFAYRLKAAFLSQELKRGGQLQWILLRYSQALITQIAQIGVCNRYHTIEQQLCRWFLLTLDRLDSSELSMTQELIANALGVSRESVAGVAGKLQGRGIIRYQRGHITVLNRTGLETGACECYETIKKEFDDALDDVRKPTLHQGDQSSKTLPLL	not soluble
MGSDKIHHHHHHMEKVLEIRDLKVYFDLTEGTVKAVDGVSFDIRRGEILGLVGESGCGKSVTAQSILRILPKSARIVNGEIVFHRNGKTLDLTRLDPEGEEIRDIRGKDISMIFQEPMASFSPVYTVGAQMIEAILLHENVSKEEARKRVVEMLKKVKIPNAEKVVDMYPFELSGGMLQRCMIAMAMSLNPTLLLADEPTTALDVTIQAQILYLMKELQKEYHSSILLITHDMGVVAQMADRVAVMYLGNIVETAEVFELFKNPLHPYTQALLRSIPKIGIRKTRLETIKGMVPDPYNLPTGCRFHNRCEKFMKGLCDVKEPPEVEVKPGHKVKCFLYGGEKE	not soluble
MGSDKIHHHHHHMELPVVVQQALGDNAPGVSFRSVSQIDTGHLLRMVLLSDDQGNLQAICRRNDMLDLEALNKRLGRDLRMMQRREQVRVRQKAGLQELPALPSLTGWPTVVDRRVDELEAVALELGEQDLGLMMPAEDFRQLTAKAARHDFAVDTANISVNLDNHAADRDQLHSAIKRFTGLRIQQRLEDTLELPPLPETAQRIIHLRVNPNAVMGDLVDVVESDPSLAAQVVSWASSSFYAAAGRVHSVHDAVSRVLGFDLVMNLAMGLALGRALKHPQDHPDGYVDYWQQAIWQAQSAGILASMMPRGQRPLFGLAYLAGLLHNFGHLVLAQVFPPHFKLVCRSLEVSPHIDSSVIEHYLLGITREQIAAQLMENWGMPDEVTLAIRYQKNPAYDGPHNVYARLLWLGRQLLTERGVALGAGESATQAVYDELGLDRELVQEQFDELVRRKDSIMAMAGMMSQGG	not soluble
MGSDKIHHHHHHMELVSVKRIWEQGEHNAFTDLVLYQGTLFCVFREGSAHVSPDGALRILRSHDAGETWQSVALLTSAHADLRDGKLIEFRGELLLLGGGTQHDKSGLQSYLWRSKDGVHWSEPQAVADKGYWLWRLTEHQDALYGVGYRAGPDGDTRLYKSDDSVEFTPWMPVFNNQGYVNESSLVFHQGSCFCLLRRDPVWSDEFLGLLGHSLSPFKQWTWQTLDKRIGGPVLFVYQSRLMAVVRLYEGDIRTALVEINQDTGQLHEWLTLPSQGDTSYAGIVLDGDDLLVSYYSSHEQAMVSDLERSDTQDDKAQDKFKTMIYFAKIKLGQN	not soluble
MGSDKIHHHHHHMENLTLKGKVILEGIIELETGMHIGGTKETLKIGGTDNPVIRDAFGRILIPGSSLKGKIRALLERKDGKYKEDGRGNYLPHDCGECEICKIFGPHDSKNIKEPVRVIVRDAYLQPEENKKDYDYLEIKVENTIDRLKGTTIKGGIRNMERVVAGSKFKFEVVFNIYKESDKELIKKFIEGMKLLEDDYLGGSGSRGYGKIKFRDIKLICKPKEYYEGNENSKKESDEVESLNELESELDKIWGGINFN	not soluble
MGSDKIHHHHHHMENRITLRHLEAFRAIMVRKSVTGAAEMLEVTQPVVTRLIADLEERIALTLFTRTKGRLVPTPEAALLVKDVEQSLLSIERIANAATNIKSLKMGRLEIAASPNMALSFLPRAINSFTLAHPEAHVSMRMHSSPTVLDMVQRDQCDLGFAMFPARSTKSGNSETLVSAKMVAVVPKTHALATKRTLRPEHFEGERFISMMPLMESRMRIDSLMLSHGVRRHVNCETQTSAAVLQLVEAGVGISIIDPLTACGYTGTGVKFLNFEPVIRNDYSIVISQRNSSTLILKPFIDHAKREILNMVPAHLLIRS	not soluble
MGSDKIHHHHHHMENYQLRIAHLYGDLMNTYGDYGNVIAIKYYAKQIQVETDYHLISLGDSFKADDYDFVIFGGGQDYEESVTAKDLPSKSDEIKKYIENNDSLLAVCGGFQLLGTTMEFANGKIINGIGAMSHHTVNLNSSELFDNMRGKRLIGNIQIKNNESGETYHGFENHQGRTFLGKGEKALGTVVSGNGNNGDDKTEGVIYKQVYGTYFHGPILTRNGNLAKRILKNALLKRYPDIDWQAKLDGIPTESF	not soluble
MGSDKIHHHHHHMERAMKILAHRGWWLEPVEKNSETAFRRAFENGFGVETDTRDQNGVLKIAHDMPVGDQVMDLDYFLDLHKSYAGSGTIAMNIKADGLHKALRASLEGAGITDLFCFDMAVPDAIGYLNNGFITYTRHSELEPLPPFYDKAQGVWLDAFYSDWITPDVIQKHLDAGKKVALVSPELHGRDHTAAWDVWGDLTGDDISICTDLPHLAAEKWG	not soluble
MGSDKIHHHHHHMERIPVIKTSDLSIGYILKGGQKKRVHDALDLNLYPGEVTCLLGLNGAGKSTLLRTLCGFQPPLGGEIELMGKPLNSYSQGNFSRLVGVVLTEKTNAGGITVYELVSLGRHPYTGFFGQLRQEDRRIIEESLAAAGIAHKAYNYVSELSDGERQKAMIAKALAQQCPIILLDEPTAFLDVTSRIETMVLLHTLAVEQQKAILLSTHDLDLAIQLGDCLWLQEKKRPMACGTPEDLIMGGAFETFFSKEGIVFDPNTGKLNTVAPAKLIGVAGDFMTSYWVGNALIRNGFKPSSVSEDYISVYCNAPDSLRIQFPAEEGTRIVGSVAEMISIIIHKS	not soluble
MGSDKIHHHHHHMESAKDITGRIFNIQKYSIYDGDGVRTLIFMKGCNIRCPWCANPEGIRRAYQILFSPDKCLHCGKCAEACPRGIHTLIADEYGSRFHHIDRTVQCTGCRKCEAACPSNALDIVGKDMTVAELMAVIMQDYSFYQSSGGGVTLSGGEVSLQTDFAVALLQACKQKMINTAVETQGTTSISHYDQLAAVTDMFLFDIKHIDTNQHKALFGIGNENIRRNLEHLVELGANIVIRMPLVRGYNDSYDAIMGAIHYVQKLAKRGNVRRIDILPYHQLGRKKYERLGMIYPIKADPSYNEEELNRLDAFFDEFDFDIRLVRH	not soluble
MGSDKIHHHHHHMESSFEVETRTVFDRYQRQQENDDHIFDRLVSLIEEEYFGLPTGSFRGLDVLDAGCGSNANASWAFLDKGARNVVSLELSNDWMDCARKRLSRFGLRSELVAGSVLDLPFDDFSFDFVHCAGVLPHTSNPKKGFEELARVTRPGGSFFLTIMGTANGVIYRCINHLRELYQSDEQFRSSIDNLDASTAREAINWLLRIKDGEEKEYIPGENEFFRSLFDDDLFVTIRDRFQAPTYHEFAFTEAQIRGWYGECGFEKIRRISRYTKNFHNLRRFLAPMYRHYDHPLARFWFGDGCIQMIGEKPST	not soluble
MGSDKIHHHHHHMETMFDTLLQLPLFQGLCHEDFTSILDKVKLHFIKHKAGETIIKSGNPCTQLCFLLKGEISIVTNAKENIYTVIEQIEAPYLIEPQSLFGMNTNYASSYVAHTEVHTVCISKAFVLSDLFRYDIFRLNYMNIVSNRAQNLYSRLWDEPTLDLKSKIIRFFLSHCEKPQGEKTFKVKMDDLARCLDDTRLNISKTLNELQDNGLIELHRKEILIPDAQKLL	soluble
MGSDKIHHHHHHMEWILFDKDGTLIEFDSSWEKIGVRLVDQLLETFPVHDKEAAHRQLGIIDKKIKPDSVMGSGSLGEIIESFNGVTGKETSDWTRDTSQELIDSRVPENNWIDGVQETIQALRNEGYHIGIVTSDTKKGVDQFLEETQTRNLFDLVISTETHAEEKPHPKVLDPLFNAFDVEPGQVAIVGDTANDMKTAINANLGLGIGVLTGVAKKEELYDADVIINSAKDVKQVIEQYGK	not soluble
MGSDKIHHHHHHMFDWEDLRHFSAFSSAGSLSAAAKTLGVDHATVARRIASLEASLQLKLVDRRPRAYALTHEGQRVAELAEQMAMSSFALEHFASAGQQTVEGEVVLSAPPALLGSIIARRLGELYQRYPQLRLKLVGSKSKASLVRREADISIALARPTEPTLVVSLLGHLDYRLYASPGYLASATVRRYIGYDESQARSPQQQWLNLQAGQQPFALHSNDLRIQAQACAGGIGIACLPAFMAQEHGLKEAGSAQQTMSIEIWLAVHEDVRATPRIKAVTDFLQQQVRPLLRL	not soluble
MGSDKIHHHHHHMFLKNAWYVAAWDHEVRTDLQQIMVLGEKICMFRTQSGDLVALEDACPHRKLPLSKGRIKGDTVECGYHGLTFNCAGTCVWAPGASGIPSNARVHAYPLAEKYGLIWIWMGNPALADPSDIFEIENYGNPDWGINRGAAMELDCNYLLMCDNLLDPTHVAWVHQSSFAAEATKDTPLHVTKTDTGIIVHRWMMDHDPAPFYKKVVEFDGNCDRLQHYEVRYPSHALVRAVFTPAGTGGPDGPLHANTFIMDSYNFMTPVSEGKTRYYWFQLRNIRPDDEALSQMMSDDVHHAFEEDRAVLNEVQIGMSSKTSPHIDLPIDGGQLRFRRQLQAMINEEAQVDAQMAE	not soluble
MGSDKIHHHHHHMFPFERQNKIIHLLDQNSKITVPELSRILDVSISTIRNDLSSLEESGMIKKVHGGAVLLKSEEKFTNFNDRIIRNIEEKEAIAKEAATLVKNNQTIILDASSTALALAKELHGFSRLTVITSGLYTAIELKDNPNISVILTGGIVTTNSFTLEGILGANLIENIHADLCFMSAKGFTMEEGLTDFNIYETELKRLLAKRTNKLIALLDHTKMGVISTASITAAENIDLLITDNKINKALYKKFQDAGLPVKIAE	not soluble
MGSDKIHHHHHHMFRIQLRTMSSKTCKSDYPKEFVSFLNSSHSPYHTVHNIKKHLVSNGFKELSERDSWAGHVAQKGKYFVTRNGSSIIAFAVGGKWEPGNPIAITGAHTDSPALRIKPISKRVSEKYLQVGVETYGGAIWHSWFDKDLGVAGRVFVKDAKTGKSIARLVDLNRPLLKIPTLAIHLDRDVNQKFEFNRETQLLPIGGLQEDKTEAKTEKEINNGEFTSIKTIVQRHHAELLGLIAKELAIDTIEDIEDFELILYDHNASTLGGFNDEFVFSGRLDNLTSCFTSMHGLTLAADTEIDRESGIRLMACFDHEEIGSSSAQGADSNFLPNILERLSILKGDGSDQTKPLFHSAILETSAKSFFLSSDVAHAVHPNYANKYESQHKPLLGGGPVIKINANQRYMTNSPGLVLVKRLAEAAKVPLQLFVVANDSPCGSTIGPILASKTGIRTLDLGNPVLSMHSIRETGGSADLEFQIKLFKEFFERYTSIESEIVV	not soluble
MGSDKIHHHHHHMFRPQDDFTYLMPVHFGGGKFDPETLVTQKATALSLSFETERDLLENYIPEGFELLAPEVQVAFNKFTEINWLHGGQYNLINVAAPVRFHGKKDELDGAYTLVVWENKTAPILGGREQTGIPKIYADIEDLHIVRPHFATTVSYEGNTFLNMDFEATGSITGRDLDALKSQFLTMNTLGWRYIPKVGAPGAELSQFVLYPQGMEVETAEVGKGSLKWTELTPMQSPAQYYIVNSLASLPIKRVTQAVLVEGRAILRAMGARVIE	not soluble
